The source of these data is US20250346634A1, “CYCLIC PEPTIDES FOR TARGETING EPIDERMAL GROWTH FACTOR RECEPTOR AND MUTATIONS THEREOF FOR DRUG DELIVERY” (priority 2022, published 2025).

Bridge positions count the residues as written; N and C are the ends. Square brackets hold non-standard residues; d marks the D form. Peptide text beside a SMILES is read from it. * marks the point of attachment. ξ: configuration not given here. FITC = O=C1OC2(c3ccc(O)cc3Oc3cc(O)ccc32)c2ccc(NC(=S)*)cc21; ξThr(3R) = C[C@@H](O)C(N)C(=O)O; GABA = NCCCC(=O)O

One data set relates to H1299 cells. In words: XTT cytotoxicity assay on H1299 cells. In kind it is cell-based. Conditions: for IC50: H1299. The procedure: (§1) Cell growth in the presence of PDCs was measured by a commercial XTT assay kit (Cell Proliferation Kit, XTT based; Biological Industries, Israel). The cells (10^4 cells/well) were seeded in 96 well plates and incubated overnight in complete growth medium. The cells were washed and then cultured in 100 μl of new medium containing various concentrations of drug or peptides, for 24 h, 48 h, and 72 h. The XTT solution was added to each well and the plate was further incubated 2-3 h at 37° C. The optical density in the wells was measured at both 480 nm and 680 nm using a TECAN Infinite M200 ELISA reader. All the tests were done in triplicates, and each experiment was repeated three times.
(§2) The cytotoxicity of the Peptide-Drug conjugates (PDCs) was tested in a range of concentrations (0.5-50 μM) against H1299 and DKMG cells using two protocols. In the first protocol, cells were pre-incubated with P6, P9, P6-CPT, and P9-CPT for 6 hours, the medium was removed, and a fresh, drug-free complete medium was added for additional 24 h (designated as 6h24h) or 48 h (6h48h). In the second protocol, cells were exposed continuously to PDCs for 24 h, 48 h, and 72 hours.

The subject of a further data set is DKMG cells. Kind of data set: XTT cytotoxicity assay on DKMG cells. In kind it is cell-based. As for the experimental part: as §1, §2
On the technique in general: Tetrazolium dyes change colour on reduction, which living cells bring about.

Data set [1] relates to EGFR+ve cells (H1299, DKMG) versus K562 cells. In words: Flow cytometry internalization of peptide-FITC conjugates. The following applies: 2.5 μM FITC-labeled peptide. The class given is cell-based. The text has this:
Analysis was done with FACS cell analyzer.
Background: In flow cytometry, cells or beads pass a laser one at a time.

Data set [2] concerns H1299, H1975 and DKMG cells. In words: Phage display biopanning with NGS, selection of EGFR-specific peptides. Conditions: 3 rounds of biopanning, K562-derived sequences excluded. The class given is cell-based. The procedure:
A heptapeptide phage display library (Ph.D.-C7C Phage Display Library Kit, New England Biolabs, USA) was used for the in vitro biopanning experiments. All cell lines were individually incubated with phages from the stock library. […] Adherent cells (H1299, […] and DKMG) were plated at a density of 10^5 cells/ml in a 6-well plate. When the culture reached 80% confluence, the first well was incubated with phage library (10^11 pfu/10 μl) for 1 h at 37° C. with gentle stirring. The medium containing unbound phage was collected and transferred to the second, similar well and incubated again. The procedure was repeated with the third well. Cells in the third wells were washed four times with 0.5% Tween-20 in PBS. Then, 0.5 ml of elution buffer (0.2 M glycine-HCl, pH 2.2) was added and incubated for 10 min at 4° C.; the pH was neutralized by addition of 75 μl of 1 M Tris-HCl buffer, pH 9.0. The supernatant containing cell surface binding phage was collected. The cells were then lysed by incubation for 1 h at 4° C. with 2 ml of 30 mM Tris-HCl and 1 mM EDTA, pH 8.0. The medium was collected and centrifuged at 1,500 rpm for 5 min and the supernatant containing cell-internalized phage was transferred to a new tube. The internalized and surface-bound phages were amplified according to the manufacturer's instructions. An aliquot of the phages was retained for sequencing (see below) and the remainder was subjected to two additional rounds of biopanning. […]
Finally, two groups of peptides were constructed; the first included sequences that were present in all three EGFR+ve cell lines and included about 416 sequences; the second was divided into three subgroups, one for each cell line, wherein the subgroup for H1299 included some 1666 sequences, the subgroup for H1975 included some 10437 sequences, the subgroup for DKMG included some 981 sequences. From this list, top eleven S—S bridged cyclic peptides sequences were selected by their count in the sequencing data (the highest number of reads). […]

The target in data set [3] is T1, EGFR variant III (EGFRvIII), on DKMG glioblastoma cells (human, UniProt P00533 25-1210).
T1 construct: whole, on cells; DKMG cells express both wild type EGFR (92% of cells) and EGFRvIII (82%); All results on DKMG cells are written against this molecule; also called EGFR mutant; EGFRVIII DKMG
Kind of data set: flow cytometry, 2.5 uM FITC-peptide on DKMG cells (EGFR WT and EGFRvIII).

The target in data set [4] is T2, epidermal growth factor receptor (EGFR), wild type (human, UniProt P00533 25-1210).
T2 construct: whole, on cells; The target is inferred from tumour cell lines that overexpress EGFR, compared with EGFR-negative cells; No purified receptor was used; also called EGFRWT; EGFR WT
In words: flow cytometry, 2.5 uM FITC-peptide on H1299 cells (EGFR overexpressing).

Turning to `CC[C@@]1(O)C(=O)OCc2c1cc1n(c2=O)Cc2cc3ccccc3nc2-1` [CPT, (S)-(+)-camptothecin, reference compound], the half-maximal inhibitory concentration (IC50) was 6.7 ± 1.8 µM in the data set with H1299 cells (Homo sapiens, NCI-H1299, 6 w 48 h (6 h pre-incubation, then 48 h drug-free medium)); 8.5 ± 1 µM in the data set on DKMG cells (6 w 48 h (6 h pre-incubation, then 48 h drug-free medium)); 25 µM in the data set with DKMG cells (24 h continuous exposure).
With `CC(C)[C@@H]1NC(=O)[C@@H](NC(=O)CCCNC(=S)Nc2ccc3c(c2)C(=O)OC32c3ccc(O)cc3Oc3cc(O)ccc32)CSSC[C@@H](C(N)=O)NC(=O)[C@H](CCCNC(=N)N)NC(=O)CNC(=O)[C@H](Cc2ccccc2)NC(=O)[C@H](CCCNC(=N)N)NC(=O)[C@H](Cc2c[nH]c3ccccc23)NC(=O)[C@H](CCCNC(=N)N)NC1=O` [FITC-labeled P3] ({FITC-GABA}-CVRWRFGRC-NH2; disulfide 1-9), the “internalization (flow cytometry)” value in data set [1] is recorded as “internalized only into to EGFR+ve cells”.
For the molecule `CC[C@H](C)[C@@H]1NC(=O)[C@H](Cc2ccc(O)cc2)NC(=O)[C@H](CO)NC(=O)CNC(=O)[C@@H]2CCCN2C(=O)[C@H](C(C)C)NC(=O)[C@H](Cc2cnc[nH]2)NC(=O)[C@@H](N)CSSC[C@@H](C(N)=O)NC1=O` [Peptide P6] (H-CHVPGSYIC-NH2; disulfide 1-9), in the data set on H1299 cells, the cytotoxicity entry was “did not demonstrate cytotoxicity”. Also, the concentration for half-maximal inhibition (IC50) was 27.5 ± 0.8 µM in the data set on H1299 cells (24 h continuous exposure), 32 µM in the data set on H1299 cells (48 h continuous exposure) and 28.8 µM with H1299 cells (72 h continuous exposure).
With `CC(C)C[C@@H]1NC(=O)[C@H](Cc2c[nH]c3ccccc23)NC(=O)[C@H](CC(N)=O)NC(=O)[C@@H](N)CSSC[C@@H](C(N)=O)NC(=O)[C@H](CCC(=O)O)NC(=O)C([C@@H](C)O)NC(=O)[C@H](CCCNC(=N)N)NC(=O)[C@H](CO)NC1=O` (stereo partly drawn) [Peptide P10] (H-CNWLSR[ξThr(3R)]EC-NH2; disulfide 1-9), in data set [2], the “Cell line (peptide specificity per cell line; source of the cells from which the peptide was identified)” value is listed as “DKMG”.

B1: FITC-labeled cyclic peptide P11, c(CAQYTPGRC) (peptide)
peptide: {FITC-GABA}-CAQYTPGRC-NH2
modifications: disulfide 1-9
SMILES: C[C@@H]1NC(=O)[C@@H](NC(=O)CCCNC(=S)Nc2ccc3c(c2)C(=O)OC32c3ccc(O)cc3Oc3cc(O)ccc32)CSSC[C@@H](C(N)=O)NC(=O)[C@H](CCCNC(=N)N)NC(=O)CNC(=O)[C@@H]2CCCN2C(=O)[C@H]([C@@H](C)O)NC(=O)[C@H](Cc2ccc(O)cc2)NC(=O)[C@H](CCC(N)=O)NC1=O
notes: also called FITC-labeled P11
Take B1: the binding result in data set [3] and in data set [4] was “binds” each time.

B2: FITC-labeled cyclic peptide P9, c(CVNAMQSYC) (peptide)
peptide: {FITC-GABA}-CVNAMQSYC-NH2
modifications: disulfide 1-9
SMILES: CSCC[C@@H]1NC(=O)[C@H](C)NC(=O)[C@H](CC(N)=O)NC(=O)[C@H](C(C)C)NC(=O)[C@@H](NC(=O)CCCNC(=S)Nc2ccc3c(c2)C(=O)OC32c3ccc(O)cc3Oc3cc(O)ccc32)CSSC[C@@H](C(N)=O)NC(=O)[C@H](Cc2ccc(O)cc2)NC(=O)[C@H](CO)NC(=O)[C@H](CCC(N)=O)NC1=O
notes: also called FITC-P9; FITC-labeled P9
For B2, the binding result in data set [3] and in data set [4] was “binds” in each case.

B3: FITC-labeled cyclic peptide P8, c(CSALWASHC) (peptide)
peptide: {FITC-GABA}-CSALWASHC-NH2
modifications: disulfide 1-9
SMILES: CC(C)C[C@@H]1NC(=O)[C@H](C)NC(=O)[C@H](CO)NC(=O)[C@@H](NC(=O)CCCNC(=S)Nc2ccc3c(c2)C(=O)OC32c3ccc(O)cc3Oc3cc(O)ccc32)CSSC[C@@H](C(N)=O)NC(=O)[C@H](Cc2c[nH]cn2)NC(=O)[C@H](CO)NC(=O)[C@H](C)NC(=O)[C@H](Cc2c[nH]c3ccccc23)NC1=O
notes: also called FITC-labeled P8
Take B3: the binding result in data set [3] and in data set [4] was “binds” each time.

B4: FITC-labeled cyclic peptide P5, c(CPNDSYHQC) (peptide)
peptide: {FITC-GABA}-CPNDSYHQC-NH2
modifications: disulfide 1-9
SMILES: NC(=O)CC[C@@H]1NC(=O)[C@H](Cc2c[nH]cn2)NC(=O)[C@H](Cc2ccc(O)cc2)NC(=O)[C@H](CO)NC(=O)[C@H](CC(=O)O)NC(=O)[C@H](CC(N)=O)NC(=O)[C@@H]2CCCN2C(=O)[C@@H](NC(=O)CCCNC(=S)Nc2ccc3c(c2)C(=O)OC32c3ccc(O)cc3Oc3cc(O)ccc32)CSSC[C@@H](C(N)=O)NC1=O
notes: also called FITC-labeled P5
On to B4, for which the binding result in data set [3] and in data set [4] was “binds” each time.

B5: FITC-labeled cyclic peptide P3, c(CVRWRFGRC) (peptide)
peptide: {FITC-GABA}-CVRWRFGRC-NH2
modifications: disulfide 1-9
SMILES: CC(C)[C@@H]1NC(=O)[C@@H](NC(=O)CCCNC(=S)Nc2ccc3c(c2)C(=O)OC32c3ccc(O)cc3Oc3cc(O)ccc32)CSSC[C@@H](C(N)=O)NC(=O)[C@H](CCCNC(=N)N)NC(=O)CNC(=O)[C@H](Cc2ccccc2)NC(=O)[C@H](CCCNC(=N)N)NC(=O)[C@H](Cc2c[nH]c3ccccc23)NC(=O)[C@H](CCCNC(=N)N)NC1=O
notes: also called FITC-labeled P3
Turning to B5, the binding result in data set [3] and in data set [4] was “binds” in each case.

B6: FITC-labeled cyclic peptide P4, c(CLAVEVRPC) (peptide)
peptide: {FITC-GABA}-CLAVEVRPC-NH2
modifications: disulfide 1-9
SMILES: CC(C)C[C@@H]1NC(=O)[C@@H](NC(=O)CCCNC(=S)Nc2ccc3c(c2)C(=O)OC32c3ccc(O)cc3Oc3cc(O)ccc32)CSSC[C@@H](C(N)=O)NC(=O)[C@@H]2CCCN2C(=O)[C@H](CCCNC(=N)N)NC(=O)[C@H](C(C)C)NC(=O)[C@H](CCC(=O)O)NC(=O)[C@H](C(C)C)NC(=O)[C@H](C)NC1=O
notes: also called FITC-labeled P4
In the case of B6, the binding result in data set [3] and in data set [4] was “binds” each time.

B7: FITC-labeled cyclic peptide P2, c(CSAETVESC) (peptide)
peptide: {FITC-GABA}-CSAETVESC-NH2
modifications: disulfide 1-9
SMILES: CC(C)[C@@H]1NC(=O)[C@H]([C@@H](C)O)NC(=O)[C@H](CCC(=O)O)NC(=O)[C@H](C)NC(=O)[C@H](CO)NC(=O)[C@@H](NC(=O)CCCNC(=S)Nc2ccc3c(c2)C(=O)OC32c3ccc(O)cc3Oc3cc(O)ccc32)CSSC[C@@H](C(N)=O)NC(=O)[C@H](CO)NC(=O)[C@H](CCC(=O)O)NC1=O
notes: also called FITC-labeled P2
For B7, the binding result in data set [3] and in data set [4] was “binds” each time.

What is called IC50 is the concentration at which inhibition is half-maximal. A higher IC50 goes with weaker potency.
